Measured values taken from PMC12297522.

Columns and labels:
[1] = biological target: trastuzumab (wild-type Fc) (human)
[2] = biological target: trastuzumab-PFc29 (human)

| serum half-life (t1/2) in hiFcRn mice, 5 mg/kg i.v. [1] [days] | serum half-life in hiFcRn mice, 5 mg/kg i.v. [2] [days] | serum half-life (t1/2) in C57BL/6 mice, 5 mg/kg i.v. [1] [days] | serum half-life in C57BL/6 mice, 5 mg/kg i.v. [2] [days] | Substance |
| --- | --- | --- | --- | --- |
| 8.3 | 18.9 |  |  | human FcRn-GST (from UniProt P55899 24-365) (receptor) |
|  |  | 13.1 | 10.5 | mouse FcRn-GST (from UniProt Q61559 22-365) (receptor) |
